Assay results published in the supplement of paper PMC10065799, “High-throughput profiling of sequence recognition by tyrosine kinases and SH2 domains using bacterial peptide display” (eLife, 2023).

Target: MERTK (UniProt Q12866)
Experiment: phosphorylation enrichment, bacterial display (enrichment ratio); higher = better substrate or ligand; peptides without Tyr show the background
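Further: 11-residue human phosphosite peptides and single-mutation variants displayed on the E. coli surface, counted by deep sequencing, each peptide's frequency after selection divided by its frequency in the unselected input library; frequency after pTyr selection over input frequency; kinase dosed for 20-30% of maximal phosphorylation in three min.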

Chain of MERTK (Q12866 whole entry, looked up): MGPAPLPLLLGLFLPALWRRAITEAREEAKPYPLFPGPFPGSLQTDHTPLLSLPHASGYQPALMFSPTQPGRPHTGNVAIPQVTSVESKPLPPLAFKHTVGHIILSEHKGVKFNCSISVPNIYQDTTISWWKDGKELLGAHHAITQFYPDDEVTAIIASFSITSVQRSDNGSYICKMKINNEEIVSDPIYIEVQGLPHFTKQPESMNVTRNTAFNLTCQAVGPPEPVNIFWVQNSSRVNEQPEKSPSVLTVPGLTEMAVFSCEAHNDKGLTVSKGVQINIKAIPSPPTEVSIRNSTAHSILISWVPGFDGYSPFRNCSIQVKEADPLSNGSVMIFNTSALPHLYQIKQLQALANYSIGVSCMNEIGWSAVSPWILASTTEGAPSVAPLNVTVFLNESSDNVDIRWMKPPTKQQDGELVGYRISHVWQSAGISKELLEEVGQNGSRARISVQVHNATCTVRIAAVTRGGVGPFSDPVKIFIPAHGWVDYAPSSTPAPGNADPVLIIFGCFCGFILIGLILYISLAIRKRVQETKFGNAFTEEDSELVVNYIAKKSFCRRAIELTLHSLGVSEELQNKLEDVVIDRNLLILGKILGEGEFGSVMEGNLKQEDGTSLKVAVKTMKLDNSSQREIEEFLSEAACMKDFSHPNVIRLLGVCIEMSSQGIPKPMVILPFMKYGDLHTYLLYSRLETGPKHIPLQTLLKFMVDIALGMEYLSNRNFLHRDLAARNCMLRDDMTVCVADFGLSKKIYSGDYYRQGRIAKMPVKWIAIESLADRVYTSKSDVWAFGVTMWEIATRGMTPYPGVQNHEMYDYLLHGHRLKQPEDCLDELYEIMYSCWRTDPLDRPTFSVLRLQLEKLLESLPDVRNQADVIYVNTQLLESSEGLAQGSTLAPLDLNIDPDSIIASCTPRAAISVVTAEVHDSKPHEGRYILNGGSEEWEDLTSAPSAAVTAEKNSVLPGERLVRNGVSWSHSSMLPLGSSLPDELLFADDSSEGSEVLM

Q: With DFSLKYATDIP [APC_Y1183_YF] as the sequence, how does the phosphorylation enrichment read?
A: The phosphorylation enrichment was 0.374.

Q: LYSNAYLSDLA [ALDH1A1_Y119_N121S] was tested. Which phosphorylation enrichment did it give?
A: The phosphorylation enrichment was 8.43.

Q: IVAREYYSKAD [CAMK2B_Y107_E110K] was tested. Which phosphorylation enrichment did it give?
A: The phosphorylation enrichment was 0.425.

Q: GIATGYLVLKE [DNMT3B_Y588] was tested. Which phosphorylation enrichment did it give?
A: The phosphorylation enrichment was 0.357.

Q: PLFRVYGLESL [INSR_Y94_L89P] was tested. Which phosphorylation enrichment did it give?
A: The phosphorylation enrichment was 0.508.

Q: KVPRHYDDPGK [FOXG1_Y246] was tested. Which phosphorylation enrichment did it give?
A: Its phosphorylation enrichment is 0.462.

Q: For EEEPVYEAEPE [HCLS1_Y360], which phosphorylation enrichment is on record?
A: Its phosphorylation enrichment is 0.72.

Q: How did the phosphorylation enrichment turn out when NSNSDYVDVLP [SH2D1B_Y127] was run?
A: Its phosphorylation enrichment is 0.54.

Q: DLAGRYFALKS [CKB_Y173_YF] was tested. Which phosphorylation enrichment did it give?
A: The phosphorylation enrichment was 0.558.

Q: Which phosphorylation enrichment does the source give for GFQPEYGQPAG [SYP_Y278_D277E_YF] here?
A: The phosphorylation enrichment was 0.424.

Q: With SESSYYKSLNL [NGEF_Y289_A286S] as the sequence, how does the phosphorylation enrichment read?
A: Its phosphorylation enrichment is 0.913.

Q: DYGSGYPNDPK [RNASEH2A_Y210] was tested. Which phosphorylation enrichment did it give?
A: Its phosphorylation enrichment is 0.569.

Q: With KLQKFYRQNPD [EHHADH_Y683_YF] as the sequence, how does the phosphorylation enrichment read?
A: The phosphorylation enrichment was 0.452.

Q: Which phosphorylation enrichment does the source give for SNSAAYSGSVA [PDLIM5_Y382_T381A] here?
A: The phosphorylation enrichment was 0.381.

Q: For RRIHNYRGHLW [VHL_Y112_S111N], which phosphorylation enrichment is on record?
A: The phosphorylation enrichment was 0.597.

Q: With PLQSEYSSIST [ITGB4_Y1760_T1764S] as the sequence, how does the phosphorylation enrichment read?
A: The phosphorylation enrichment was 0.582.

Q: How did the phosphorylation enrichment turn out when STEEQYRIRQV [EFHC1_Y115] was run?
A: Its phosphorylation enrichment is 0.345.

Q: SAAAIYTVRHP [PMP22_Y117] was tested. Which phosphorylation enrichment did it give?
A: Its phosphorylation enrichment is 1.92.

Q: GELQGYDIMEP [MSH2_Y863_S860L] was tested. Which phosphorylation enrichment did it give?
A: Its phosphorylation enrichment is 0.419.

Q: For ADYPDYKYRPR [SOX11_Y116], which phosphorylation enrichment is on record?
A: Its phosphorylation enrichment is 0.378.

Q: Which phosphorylation enrichment does the source give for TVVGLYQKSSL [MYH7_Y609] here?
A: The phosphorylation enrichment was 0.627.

Q: For PGPQSYPTVTG [PAX5_Y299_I301T], which phosphorylation enrichment is on record?
A: The phosphorylation enrichment was 0.707.

Q: How did the phosphorylation enrichment turn out when AVISVYDLVAV [PSEN1_Y256] was run?
A: The phosphorylation enrichment was 6.38.

Q: Which phosphorylation enrichment does the source give for ESLSSYRESAK [APOC2_Y47_W48R] here?
A: The phosphorylation enrichment was 0.391.

Q: GVRYIYTIDGS [DCX_Y105] was tested. Which phosphorylation enrichment did it give?
A: The phosphorylation enrichment was 0.405.

Q: ATARPYSPFII [LRP5_Y1528_R1529S_YF] was tested. Which phosphorylation enrichment did it give?
A: Its phosphorylation enrichment is 0.552.

Q: ISSLRYELLEE [TRPC6_Y896] was tested. Which phosphorylation enrichment did it give?
A: The phosphorylation enrichment was 0.533.

Q: With EADRKYEEVAC [TPM3_Y163_R168C] as the sequence, how does the phosphorylation enrichment read?
A: Its phosphorylation enrichment is 0.545.

Q: How did the phosphorylation enrichment turn out when LEAVSYSSRYA [RNLS_Y190] was run?
A: Its phosphorylation enrichment is 0.63.

Test system: c-Abl (mouse)
Experiment: as above

Q: How did the phosphorylation enrichment turn out when DFSLKYATDIP [APC_Y1183_YF] was run?
A: The phosphorylation enrichment was 0.572.

Q: How did the phosphorylation enrichment turn out when LYSNAYLSDLA [ALDH1A1_Y119_N121S] was run?
A: Its phosphorylation enrichment is 0.618.

Q: For IVAREYYSKAD [CAMK2B_Y107_E110K], which phosphorylation enrichment is on record?
A: Its phosphorylation enrichment is 0.639.

Q: Which phosphorylation enrichment does the source give for GIATGYLVLKE [DNMT3B_Y588] here?
A: The phosphorylation enrichment was 0.533.

Q: For PLFRVYGLESL [INSR_Y94_L89P], which phosphorylation enrichment is on record?
A: The phosphorylation enrichment was 1.15.

Q: How did the phosphorylation enrichment turn out when KVPRHYDDPGK [FOXG1_Y246] was run?
A: Its phosphorylation enrichment is 1.01.

Q: How did the phosphorylation enrichment turn out when EEEPVYEAEPE [HCLS1_Y360] was run?
A: Its phosphorylation enrichment is 1.14.

Q: Which phosphorylation enrichment does the source give for NSNSDYVDVLP [SH2D1B_Y127] here?
A: Its phosphorylation enrichment is 0.743.

Q: Which phosphorylation enrichment does the source give for DLAGRYFALKS [CKB_Y173_YF] here?
A: Its phosphorylation enrichment is 1.49.

Q: Which phosphorylation enrichment does the source give for GFQPEYGQPAG [SYP_Y278_D277E_YF] here?
A: The phosphorylation enrichment was 0.586.

Q: For SESSYYKSLNL [NGEF_Y289_A286S], which phosphorylation enrichment is on record?
A: The phosphorylation enrichment was 0.561.

Q: DYGSGYPNDPK [RNASEH2A_Y210] was tested. Which phosphorylation enrichment did it give?
A: Its phosphorylation enrichment is 0.778.

Q: Which phosphorylation enrichment does the source give for KLQKFYRQNPD [EHHADH_Y683_YF] here?
A: Its phosphorylation enrichment is 0.581.

Q: How did the phosphorylation enrichment turn out when SNSAAYSGSVA [PDLIM5_Y382_T381A] was run?
A: Its phosphorylation enrichment is 0.697.

Q: With RRIHNYRGHLW [VHL_Y112_S111N] as the sequence, how does the phosphorylation enrichment read?
A: The phosphorylation enrichment was 0.609.

Q: Which phosphorylation enrichment does the source give for PLQSEYSSIST [ITGB4_Y1760_T1764S] here?
A: Its phosphorylation enrichment is 1.49.

Q: STEEQYRIRQV [EFHC1_Y115] was tested. Which phosphorylation enrichment did it give?
A: The phosphorylation enrichment was 0.43.

Q: With SAAAIYTVRHP [PMP22_Y117] as the sequence, how does the phosphorylation enrichment read?
A: The phosphorylation enrichment was 0.67.

Q: GELQGYDIMEP [MSH2_Y863_S860L] was tested. Which phosphorylation enrichment did it give?
A: The phosphorylation enrichment was 0.658.

Q: How did the phosphorylation enrichment turn out when ADYPDYKYRPR [SOX11_Y116] was run?
A: The phosphorylation enrichment was 0.461.

Q: How did the phosphorylation enrichment turn out when TVVGLYQKSSL [MYH7_Y609] was run?
A: Its phosphorylation enrichment is 0.793.

Q: Which phosphorylation enrichment does the source give for PGPQSYPTVTG [PAX5_Y299_I301T] here?
A: The phosphorylation enrichment was 1.06.

Q: For AVISVYDLVAV [PSEN1_Y256], which phosphorylation enrichment is on record?
A: Its phosphorylation enrichment is 0.753.

Q: Which phosphorylation enrichment does the source give for ESLSSYRESAK [APOC2_Y47_W48R] here?
A: The phosphorylation enrichment was 0.495.

Q: With GVRYIYTIDGS [DCX_Y105] as the sequence, how does the phosphorylation enrichment read?
A: Its phosphorylation enrichment is 0.687.

Q: ATARPYSPFII [LRP5_Y1528_R1529S_YF] was tested. Which phosphorylation enrichment did it give?
A: Its phosphorylation enrichment is 0.467.

Q: How did the phosphorylation enrichment turn out when ISSLRYELLEE [TRPC6_Y896] was run?
A: The phosphorylation enrichment was 0.621.

Q: Which phosphorylation enrichment does the source give for EADRKYEEVAC [TPM3_Y163_R168C] here?
A: Its phosphorylation enrichment is 0.862.

Q: For LEAVSYSSRYA [RNLS_Y190], which phosphorylation enrichment is on record?
A: The phosphorylation enrichment was 0.459.
